Literature values as cited in publication PMC7531836.

Biological target: C5 (Homo sapiens) (UniProt P01031)

eculizumab
Kd: 0.12 nM
